This sample holds only a part of the variants without activity.
Experiments:
biotinyl-Trp-oxazolone = test: self-aminoacylation, catalytic enhancement (BWO) (fold over background); higher = more active; k-Seq, kA / k0A0; sequences stand for … in GGGAAUGGAUCCACAUCUACGAAUUC…UUCACUGCAGACUUGACGAAGCUG
In short: (§1)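 Working in 50 μL HEPES/NaCl/KCl/MgCl2/CaCl2 buffer with 5% acetonitrile at pH 6.9–7.0, mutagenized RNA pools (0.43 μM; 21-nt variable region) were reacted with 2–1250 μM of each biotinyl-aminoacyl-oxazolone for 90 minutes at room temperature. Streptavidin capture followed, with quantification by triplicate qPCR and Illumina sequencing. Catalytic enhancement is reported as median kA over the uncatalyzed rate, the low-activity peak of a bimodal Gaussian fit to the data.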

biotinyl-Leu-oxazolone = test: self-aminoacylation, catalytic enhancement (BLO) (fold over background); higher = more active; k-Seq, kA / k0A0; sequences stand for … in GGGAAUGGAUCCACAUCUACGAAUUC…UUCACUGCAGACUUGACGAAGCUG
In short: as §1

biotinyl-Ile-oxazolone = test: self-aminoacylation, catalytic enhancement (BIO) (fold over background); higher = more active; k-Seq, kA / k0A0; sequences stand for … in GGGAAUGGAUCCACAUCUACGAAUUC…UUCACUGCAGACUUGACGAAGCUG
In short: as §1

biotinyl-Phe-oxazolone = test: self-aminoacylation, catalytic enhancement (BFO) (fold over background); higher = more active; k-Seq, kA / k0A0; sequences stand for … in GGGAAUGGAUCCACAUCUACGAAUUC…UUCACUGCAGACUUGACGAAGCUG
In short: as §1

biotinyl-Met-oxazolone = test: self-aminoacylation, catalytic enhancement (BMO) (fold over background); higher = more active; k-Seq, kA / k0A0; sequences stand for … in GGGAAUGGAUCCACAUCUACGAAUUC…UUCACUGCAGACUUGACGAAGCUG
In short: as §1

biotinyl-Val-oxazolone = test: self-aminoacylation, catalytic enhancement (BVO) (fold over background); higher = more active; k-Seq, kA / k0A0; sequences stand for … in GGGAAUGGAUCCACAUCUACGAAUUC…UUCACUGCAGACUUGACGAAGCUG
In short: as §1

Row | Sequence | self-aminoacylation (biotinyl-Trp-oxazolone) | self-aminoacylation (biotinyl-Leu-oxazolone) | self-aminoacylation (biotinyl-Ile-oxazolone) | self-aminoacylation (biotinyl-Phe-oxazolone) | self-aminoacylation (biotinyl-Met-oxazolone) | self-aminoacylation (biotinyl-Val-oxazolone)
1 | CUUCUUCAAACCAUCGGUCUG [Fam1A.1 aminoacylation ribozyme variant] | 0.509 | 0.722 | 0.856 | 0.739 | 0.682 | 0.775
2 | AUUCACUUAAGUCAUCGGGUG [Fam2.2 aminoacylation ribozyme variant] | 9.67 | 12.4 | 5.72 | 71.7 | 8.88 | 5.11
3 | AUUACCCUGCUCAUCGAGUGU [Fam2.1 aminoacylation ribozyme variant] | 1.36 | 0.916 | 0.991 | 1.08 | 1 | 0.78
4 | CCACACUUCGAGCAAUCGGAC [Fam1B.1 aminoacylation ribozyme variant] | 0.929 | 0.935 | 0.916 | 0.331 | 0.897 | 1.67
5 | AUUCAACUAGGUCAUCCGGUG [Fam2.2 aminoacylation ribozyme variant] | 6.62 | 8.12 | 4.6 | 45.8 | 5.49 | 3.72
6 | AUGUUUGCUAAUAGUCGCUAG [Fam3.1 aminoacylation ribozyme variant] | 1.28 | 1.06 | 1.19 | 1.82 | 1.06 | 1.08
7 | CCACACUUUCAGCAAUCGGUC [Fam1B.1 aminoacylation ribozyme variant] | 0.664 | 0.966 | 1.01 | 1.04 | 0.799 | 1.09
8 | ACUCCCCUAGGUCAUCGGGUG [Fam2.2 aminoacylation ribozyme variant] | 13.8 | 18.6 | 8.61 | 101 | 13.7 | 10.3
9 | AUGCAACUAGGUCAUCGGGUG [Fam2.2 aminoacylation ribozyme variant] | 8.26 | 9.82 | 6.38 | 56.2 | 8.13 | 5.58
10 | AAGUGUGCUAAUAAUCGCAAG [Fam3.1 aminoacylation ribozyme variant] | 1.09 | 0.989 | 1.35 | 1.51 | 1.25 | 1.29
11 | CUACUUCAAACAAUCGGUCGA [Fam1A.1 aminoacylation ribozyme variant] | 6.82 | 0.992 | 0.884 | 14.9 | 0.807 | 0.974
12 | CAGUUUGGUAAUAGUCGCAAG [Fam3.1 aminoacylation ribozyme variant] | 1.97 | 1.73 | 1.85 | 2.57 | 1.73 | 1.67
13 | CCAAACUUCAAUCAAUCGGUC [Fam1B.1 aminoacylation ribozyme variant] | 23.5 | 1.73 | 1.29 | 36.8 | 1.43 | 1.28
14 | CUAUAUCAAACAAUCGGUCUG [Fam1A.1 aminoacylation ribozyme variant] | 1.01 | 0.638 | 0.752 | 1.62 | 0.561 | 0.634
15 | AAUACCCUGGUCAUAGAGUGA [Fam2.1 aminoacylation ribozyme variant] | 5.58 | 4.68 | 2.68 | 10.7 | 4.64 | 2.3
16 | AUUACCCCGGUCAUCGGGUGA [Fam2.1 aminoacylation ribozyme variant] | 12.7 | 15.9 | 5.57 | 103 | 14.4 | 7.32
17 | AUUACCCUGGUCAUCCAGUGA [Fam2.1 aminoacylation ribozyme variant] | 6.71 | 5.76 | 3.41 | 28.1 | 5.67 | 3.42
18 | AUUACCCUUGUCAUCGAGUGU [Fam2.1 aminoacylation ribozyme variant] | 3.65 | 3.08 | 1.71 | 8.43 | 2.89 | 2.03
19 | CAACACUACAAGCAAUCGGUC [Fam1B.1 aminoacylation ribozyme variant] | 0.713 | 0.914 | 0.955 | 0.958 | 0.956 | 1.01
20 | CUACUCUAAACAAUCGGUCUG [Fam1A.1 aminoacylation ribozyme variant] | 0.651 | 0.727 | 0.808 | 0.77 | 0.776 | 0.873
21 | AAGUUUGCUAACCGUCGCAAG [Fam3.1 aminoacylation ribozyme variant] | 0.488 | 0.755 | 0.714 | 0.981 | 0.567 | 0.754
22 | AGUCACCUGGGUCAUCGGGUG [Fam2.2 aminoacylation ribozyme variant] | 5.64 | 4.04 | 4.56 | 35.4 | 3.98 | 4.96
23 | AUUACCCUGCUCAACGAGUGA [Fam2.1 aminoacylation ribozyme variant] | 6.69 | 5.59 | 2.33 | 24.7 | 5.64 | 3.25
24 | CCACUUAAAACAAUCGGUCUG [Fam1A.1 aminoacylation ribozyme variant] | 1.12 | 1.05 | 1.11 | 0.816 | 1.44 | 1.13
25 | AAGGUUGCUAAUAGUCGCUAG [Fam3.1 aminoacylation ribozyme variant] | 1.27 | 1.19 | 1.3 | 1.54 | 1.03 | 1.03
26 | CCGCACUUCGAGCAAUCGGUC [Fam1B.1 aminoacylation ribozyme variant] | 2.26 | 1.46 | 1.22 | 5.29 | 1.46 | 2.27

Row | Sequence | self-aminoacylation (biotinyl-Trp-oxazolone) | self-aminoacylation (biotinyl-Leu-oxazolone) | self-aminoacylation (biotinyl-Ile-oxazolone) | self-aminoacylation (biotinyl-Phe-oxazolone) | self-aminoacylation (biotinyl-Met-oxazolone) | self-aminoacylation (biotinyl-Val-oxazolone)
27 | CUACUUCAAACAAUUGGUGUG [Fam1A.1 aminoacylation ribozyme variant] | 1.23 | 1.62 | 1.19 | 1.52 | 1.24 | 1.12
28 | CCACACUUCAGUCAAUCGGUC [Fam1B.1 aminoacylation ribozyme variant] | 1.31 | 1.03 | 1.11 | 1.06 | 1.02 | 0.965
29 | AAGUUGGCUAAUAAUCGCAAG [Fam3.1 aminoacylation ribozyme variant] | 2.04 | 1.34 | 1.72 | 2.15 | 1.29 | 1.67
30 | AAGUUUGCUAUUAGGCGCAAG [Fam3.1 aminoacylation ribozyme variant] | 0.841 | 0.546 | 0.746 | 0.81 | 0.591 | 0.681
31 | AUUACCCAGGUUAUCGAGUGA [Fam2.1 aminoacylation ribozyme variant] | 11.6 | 9.68 | 3.94 | 50.4 | 9.6 | 4.25
32 | AUCACCGUGGUCAUCGAGUGA [Fam2.1 aminoacylation ribozyme variant] | 7.75 | 6.15 | 3.99 | 52.5 | 7.05 | 4.01
33 | AUUACCCUGAUAAUCGAGUGA [Fam2.1 aminoacylation ribozyme variant] | 11.1 | 10.3 | 4.12 | 39.8 | 9.64 | 4.59
34 | AGUACCCUGGGCAUCGAGUGA [Fam2.1 aminoacylation ribozyme variant] | 7.71 | 6.54 | 2.96 | 47 | 6.28 | 3.16
35 | AUUCACCUAGUUCAUCGAGUG [Fam2.2 aminoacylation ribozyme variant] | 1.25 | 1.31 | 0.949 | 1.17 | 1.21 | 1.04
36 | CUACUUCUAUCAAUCGGUCUG [Fam1A.1 aminoacylation ribozyme variant] | 0.493 | 0.554 | 0.7 | 0.796 | 0.636 | 0.63
37 | CAACACUUCAACCAAUCGGUC [Fam1B.1 aminoacylation ribozyme variant] | 28.2 | 2.04 | 1.28 | 45.6 | 1.58 | 1.36
38 | AUUCACCUAGGAUAUCGGGUG [Fam2.2 aminoacylation ribozyme variant] | 5.47 | 7.35 | 3.31 | 44.1 | 6.65 | 3.64
39 | AUUACCCCAGUCAUCGAGUGA [Fam2.1 aminoacylation ribozyme variant] | 6.76 | 4.88 | 2.92 | 24.9 | 6.05 | 3.25
40 | AUUACCCUGGUCCUCGAGAGA [Fam2.1 aminoacylation ribozyme variant] | 0.889 | 1.32 | 0.884 | 0.376 | 0.757 | 1.28
41 | ACACACUUCAAGCAAUGGGUC [Fam1B.1 aminoacylation ribozyme variant] | 1.03 | 0.794 | 0.996 | 1.04 | 1.03 | 0.947
42 | GAGUUUGCUAAUAGUCGCGAG [Fam3.1 aminoacylation ribozyme variant] | 2.17 | 1.47 | 1.55 | 1.76 | 1.63 | 1.38
43 | UUUACCCCGGUCAUCGAGUGA [Fam2.1 aminoacylation ribozyme variant] | 6.13 | 6.37 | 3.31 | 35.5 | 6.14 | 3.64
44 | AUUACCUUGCUCAUCGAGUGA [Fam2.1 aminoacylation ribozyme variant] | 3.02 | 2.31 | 1.68 | 4.55 | 2.29 | 1.82
45 | AAGUUUGCUUAUAGUCUCAAG [Fam3.1 aminoacylation ribozyme variant] | 0.69 | 0.902 | 1.05 | 1.41 | 1.08 | 0.888
46 | CUGCUUCAAACCAUCGGUCUG [Fam1A.1 aminoacylation ribozyme variant] | 0.706 | 0.631 | 0.708 | 0.756 | 0.677 | 0.887
47 | AUUCAACUAGGUCAUUGGGUG [Fam2.2 aminoacylation ribozyme variant] | 3.66 | 4.71 | 2.3 | 23.7 | 3.46 | 2.19
48 | CUCCUUCAAACAAUCGGUCUG [Fam1A.1 aminoacylation ribozyme variant] | 32.3 | 2.04 | 1.1 | 59.2 | 1.29 | 1.2
49 | CUACUUUAAACAAUCGGCCUG [Fam1A.1 aminoacylation ribozyme variant] | 2.02 | 0.974 | 1.2 | 0.942 | 1.24 | 1.03
50 | AUUCACAUUGGUCAUCGGGUG [Fam2.2 aminoacylation ribozyme variant] | 8.88 | 12.8 | 6.31 | 82.8 | 10.1 | 5.97
51 | ACGUUUGCUAAUUGUCGCAAG [Fam3.1 aminoacylation ribozyme variant] | 2.66 | 2.06 | 1.6 | 1.96 | 1.81 | 1.77
